Consider three molecules from patent US20250368740A1 (SHENZHEN BAISHITONG TECHNOLOGY DEVELOPMENT, published 2025).

Test [1] concerns the target T1, biotinylated human CD122/132 (human, UniProt P14784 27-239; P31785 23-254, limits assumed, biotinylated (site not stated)).
T1 construct: Bought heterodimeric reagent; also called CD122/CD132
T1 sequence (looked up) 1: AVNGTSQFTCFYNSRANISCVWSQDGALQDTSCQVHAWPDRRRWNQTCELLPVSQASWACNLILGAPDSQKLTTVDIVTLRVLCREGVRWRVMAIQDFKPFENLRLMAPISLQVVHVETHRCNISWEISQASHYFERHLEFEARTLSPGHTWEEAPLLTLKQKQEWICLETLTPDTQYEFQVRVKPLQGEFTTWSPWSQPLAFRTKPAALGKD
T1 sequence (looked up) 2: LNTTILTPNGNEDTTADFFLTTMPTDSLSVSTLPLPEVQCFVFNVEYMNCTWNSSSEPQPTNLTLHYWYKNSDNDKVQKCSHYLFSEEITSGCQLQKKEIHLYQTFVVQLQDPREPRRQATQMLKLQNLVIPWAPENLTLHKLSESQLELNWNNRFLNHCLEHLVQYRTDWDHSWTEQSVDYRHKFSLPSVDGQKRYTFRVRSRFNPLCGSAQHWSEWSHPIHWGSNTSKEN
The test can be described thus: sandwich ELISA: antibody on coated human CD276-ECD, biotinylated CD122/132 detected with SA-HRP. On the procedure: The method was as follows: The plates were pre-coated with human CD276-ECD protein diluted to 2 μg/mL in the coating solution (50 mM carbonate coating buffer, pH 9.6) and incubated at 4° C. overnight. The plates were then blocked with 5% skim milk powder at 37° C. for 2 hours. Afterward, the plates were washed 3 times with PBST, and the to-be-tested antibody, diluted in 1% BSA-PBST at various gradients, was added to the blocked plates at 100 μL per well. The plates were incubated at 37° C. for 1 hour. […] Following 3 additional washes with PBST, diluted HRP-conjugated streptavidin (SA) (purchased from Pierce) was added, and the plates were incubated at 37° C. for 30 minutes. After 3 more washes with PBST, residual droplets were removed by blotting on absorbent paper. Then, 100 μL of TMB substrate (purchased from KPL) was added to each well, and the plates were incubated at room temperature (20±5° C.) in the dark for 5 minutes.
As a control, hu147 could bind to CD276 (as shown in Embodiment 8), but not CD122/CD132.

Test [2] addresses T2, recombinant human CD276-ECD protein (human, UniProt Q5ZPR3 29-255).
T2 construct: Purchased from Acro BIOSYSTEMS; Used native (ELISA) and reduced and denatured (Western blot); also called B7-H3
T2 sequence: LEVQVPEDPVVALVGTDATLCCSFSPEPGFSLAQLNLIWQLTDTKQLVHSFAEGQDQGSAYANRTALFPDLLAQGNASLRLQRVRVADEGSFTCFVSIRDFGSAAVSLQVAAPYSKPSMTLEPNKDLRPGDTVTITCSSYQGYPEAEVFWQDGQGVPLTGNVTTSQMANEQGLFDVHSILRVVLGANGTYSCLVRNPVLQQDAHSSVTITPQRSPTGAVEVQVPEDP
The test can be described thus: indirect ELISA, plate coated with human CD276-ECD. For orientation: An ELISA detects its analyte on a solid surface through an enzyme-linked reagent.

The target in a further test is T3, mouse CD276-ECD (mouse, UniProt Q8VE98 29-244).
T3 construct: Purchased from Acro BIOSYSTEMS; also called mouse CD276-ECD protein
T3 sequence: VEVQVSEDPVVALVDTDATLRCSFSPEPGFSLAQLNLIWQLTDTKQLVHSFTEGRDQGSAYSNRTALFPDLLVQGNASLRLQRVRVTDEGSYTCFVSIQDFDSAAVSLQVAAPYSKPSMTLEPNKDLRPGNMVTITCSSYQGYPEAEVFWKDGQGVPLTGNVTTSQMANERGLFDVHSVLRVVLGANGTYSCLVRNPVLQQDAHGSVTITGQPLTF
In words: indirect ELISA, plate coated with 2 µg/mL mouse CD276-ECD. On the procedure:
(§1) The specific method was as follows: The plates were pre-coated with crab-eating macaque and mouse CD276-ECD proteins diluted to 2 μg/mL in the coating solution (50 mM carbonate coating buffer, pH 9.6) and incubated at 4° C. overnight. The plates were then blocked with 5% skim milk powder at 37° C. for 2 hours. Afterward, the plates were washed 3 times with PBST, and the to-be-tested antibody, diluted in 1% BSA-PBST at various gradients, was added to the blocked plates at 100 μL per well. The plates were incubated at 37° C. for 1 hour. After washing the plates 3 times with PBST, HRP-conjugated goat anti-mouse IgG secondary antibody (purchased from Millipore) was added, and the plates were incubated at 37° C. for 30 minutes. After 3 more washes with PBST, residual droplets were removed by blotting on absorbent paper. Then, 100 μL of TMB substrate (purchased from KPL) was added to each well, and the plates were incubated at room temperature (20±5° C.) in the dark for 5 minutes. Finally, 50 μL of 2 M H2SO4 was added to each well to terminate the substrate reaction, and the OD value at 450 nm was read using a microplate reader to analyze the binding ability of the to-be-tested antibody to the target antigens, i.e., crab-eating macaque and mouse CD276-ECD proteins.

Test [3] concerns the target T4, peptide 1-18, bio-PSMTLEPNKD LRPGDTV AI (145-164).
T4 construct: Alanine-scan variant of peptide 1
T4 peptide: Biotin-PSMTLEPNKDLRPGDTVAI
In words: ELISA on biotin-labeled alanine-scan peptides.

Test [4] has as its target T5, peptide 1-16, bio-PSMTLEPNKD LRPGD AVTI (145-164).
T5 construct: Alanine-scan variant of peptide 1
T5 peptide: Biotin-PSMTLEPNKDLRPGDAVTI
The test can be described thus: ELISA on biotin-labeled alanine-scan peptides.

The target in test [5] is T6, peptide 1-3, bio-PS ATLEPNKD LRPGDTVTI (145-164).
T6 construct: Alanine-scan variant of peptide 1
T6 peptide: Biotin-PSATLEPNKDLRPGDTVTI
The test can be described thus: ELISA on biotin-labeled alanine-scan peptides.

The target in test [6] is T7, peptide 1-2, bio-P AMTLEPNKD LRPGDTVTI (145-164).
T7 construct: Alanine-scan variant of peptide 1
T7 peptide: Biotin-PAMTLEPNKDLRPGDTVTI
In words: ELISA on biotin-labeled alanine-scan peptides.

Test [7] deals with T8, peptide 1-9, bio-PSMTLEPN AD LRPGDTVTI (145-164).
T8 construct: Alanine-scan variant of peptide 1
T8 peptide: Biotin-PSMTLEPNADLRPGDTVTI
The test can be described thus: ELISA on biotin-labeled alanine-scan peptides.

Test [8] concerns the target T9, peptide 1-8, bio-PSMTLEP AKD LRPGDTVTI (145-164).
T9 construct: Alanine-scan variant of peptide 1
T9 peptide: Biotin-PSMTLEPAKDLRPGDTVTI
In words: ELISA on biotin-labeled alanine-scan peptides.

Test [9] has as its target T10, peptide 1-1, bio-ASMTLEPNKD LRPGDTVTI (145-164).
T10 construct: Alanine-scan variant of peptide 1
T10 peptide: Biotin-ASMTLEPNKDLRPGDTVTI
In words: ELISA on biotin-labeled alanine-scan peptides.

In test [10] the target is T11, peptide 1-17, bio-PSMTLEPNKD LRPGDT ATI (145-164).
T11 construct: Alanine-scan variant of peptide 1
T11 peptide: Biotin-PSMTLEPNKDLRPGDTATI
The test can be described thus: ELISA on biotin-labeled alanine-scan peptides.

Test [11] has as its target T12, peptide 1-4, bio-PSM ALEPNKD LRPGDTVTI (145-164).
T12 construct: Alanine-scan variant of peptide 1
T12 peptide: Biotin-PSMALEPNKDLRPGDTVTI
In words: ELISA on biotin-labeled alanine-scan peptides.

For test [12], the target named is T13, peptide 1-6, bio-PSMTL APNKD LRPGDTVTI (145-164).
T13 construct: Alanine-scan variant of peptide 1
T13 peptide: Biotin-PSMTLAPNKDLRPGDTVTI
The test can be described thus: ELISA on biotin-labeled alanine-scan peptides.

In test [13] the target is T14, peptide 1-5, bio-PSMT AEPNKD LRPGDTVTI (145-164).
T14 construct: Alanine-scan variant of peptide 1
T14 peptide: Biotin-PSMTAEPNKDLRPGDTVTI
In words: ELISA on biotin-labeled alanine-scan peptides.

Test [14] has as its target T15, peptide 1-19, bio-PSMTLEPNKD LRPGDTVT A (145-164).
T15 construct: Alanine-scan variant of peptide 1
T15 peptide: Biotin-PSMTLEPNKDLRPGDTVTA
The test can be described thus: ELISA on biotin-labeled alanine-scan peptides.

Test [15] addresses T16, peptide 1-13, bio-PSMTLEPNKD LR AGDTVTI (145-164).
T16 construct: Alanine-scan variant of peptide 1
T16 peptide: Biotin-PSMTLEPNKDLRAGDTVTI
The test can be described thus: ELISA on biotin-labeled alanine-scan peptides.

For test [16], the target named is T17, human CD276 on the surface of tumor cells (human, UniProt Q5ZPR3 29-534).
T17 construct: whole, on cells; Endogenous expression on human tumor cell lines; also called CD276 on A498 cells
T17 sequence (looked up): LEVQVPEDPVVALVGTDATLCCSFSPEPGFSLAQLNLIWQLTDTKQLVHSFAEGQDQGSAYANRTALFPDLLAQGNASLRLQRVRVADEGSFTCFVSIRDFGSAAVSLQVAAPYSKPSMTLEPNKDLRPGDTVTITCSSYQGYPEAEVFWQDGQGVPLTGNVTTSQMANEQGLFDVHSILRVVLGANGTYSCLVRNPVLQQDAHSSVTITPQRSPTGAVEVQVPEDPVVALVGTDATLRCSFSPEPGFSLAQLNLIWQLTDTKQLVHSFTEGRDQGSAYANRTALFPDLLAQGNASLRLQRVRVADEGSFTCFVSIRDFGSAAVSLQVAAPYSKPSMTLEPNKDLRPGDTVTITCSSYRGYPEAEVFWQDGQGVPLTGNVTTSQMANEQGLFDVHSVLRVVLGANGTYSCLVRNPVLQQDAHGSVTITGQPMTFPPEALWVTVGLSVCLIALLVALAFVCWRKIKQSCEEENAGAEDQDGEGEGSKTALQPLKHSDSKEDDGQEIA
The test can be described thus: flow cytometry on human renal cancer cells A498. On the procedure:
In this experiment, human renal cancer cells A498 were used as the target cells. […] The cells were washed twice with PBS to remove those secondary antibody unbinding to the cells and then resuspended in 100 μL PBS.

In test [17] the target is T18, crab-eating macaque CD276-ECD (crab-eating macaque, UniProt Q5ZPR3 217-452 (human entry)).
T18 construct: Purchased from Acro BIOSYSTEMS; also called crab-eating macaque CD276-ECD protein; crab-eating macaque CD276-ECD antigen
T18 chain: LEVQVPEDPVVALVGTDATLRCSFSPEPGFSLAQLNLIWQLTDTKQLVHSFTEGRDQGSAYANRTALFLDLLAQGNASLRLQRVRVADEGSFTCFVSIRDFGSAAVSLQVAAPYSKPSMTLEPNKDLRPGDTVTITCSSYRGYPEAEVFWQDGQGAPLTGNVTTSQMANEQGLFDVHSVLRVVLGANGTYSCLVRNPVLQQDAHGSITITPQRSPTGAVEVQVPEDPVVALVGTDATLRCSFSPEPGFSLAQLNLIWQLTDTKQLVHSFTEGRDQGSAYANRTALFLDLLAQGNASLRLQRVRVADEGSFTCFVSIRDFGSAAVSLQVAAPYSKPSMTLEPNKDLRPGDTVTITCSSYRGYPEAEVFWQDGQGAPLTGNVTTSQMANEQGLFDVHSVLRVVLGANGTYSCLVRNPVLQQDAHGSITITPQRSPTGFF
The test can be described thus: indirect ELISA, plate coated with crab-eating macaque CD276-ECD. On the procedure: as §1

The target in the next test is T19, C2-type 1-Fc (human).
T19 construct: Expressed in Expi-293F cells, purified on Protein A, tested by Western blot; also called Ig-like C2-type 1 (Domain 2) of human CD276-ECD linked to human Fc; second functional domain of human CD276-ECD
T19 sequence (chain, as listed by the source limits assumed): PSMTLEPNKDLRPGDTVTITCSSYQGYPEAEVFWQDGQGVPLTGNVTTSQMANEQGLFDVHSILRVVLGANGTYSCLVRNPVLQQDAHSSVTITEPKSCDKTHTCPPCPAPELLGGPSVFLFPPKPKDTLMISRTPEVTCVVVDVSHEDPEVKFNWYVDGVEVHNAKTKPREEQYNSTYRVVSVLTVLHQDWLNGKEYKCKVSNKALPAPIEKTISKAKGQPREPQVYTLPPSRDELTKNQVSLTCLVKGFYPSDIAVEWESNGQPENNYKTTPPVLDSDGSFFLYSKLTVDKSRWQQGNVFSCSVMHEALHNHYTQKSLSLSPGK
In words: Western blot on Fc fusion proteins of the domains.

Values joined by “and” are separate entries in the source; they are usually repeats but may differ in a detail not shown here. Equal entries are not always repeated. Where no end group is shown, it is not given here. The star is where a group is joined. Biotin = O=C1N[C@H]2[C@H](CS[C@H]2CCCCC(=O)*)N1

B1: humanized antibody hu147 (antibody)
heavy: not shown
light: EIVMTQSPPTLSLSPGERVTLSCRASENVGTYVSWYQQKPGQAPRLLIYGASNRYTGIPARFSGSGSGTDFTLTISSLQPEDFAVYYCGQRYSYPFTFGGGTKLEIKRTVAAPSVFIFPPSDEQLKSGTASVVCLLNNFYPREAKVQWKVDNALQSGNSQESVTEQDSKDSTYSLSSTLTLSKADYEKHKVYACEVTHQGLSSPVTKSFNRGEC
notes: Human IgG1 / kappa; also called hul47
Usually EC50 stands for the concentration that produces a half-maximal response. B1: the binding result in [1] was “no binding”. In addition, the EC50 in test [2] is 0.0067 µg/mL and 0.04 nM.

B2: Fc-mutated humanized antibody hu147mu (antibody, human IgG1, kappa)
heavy: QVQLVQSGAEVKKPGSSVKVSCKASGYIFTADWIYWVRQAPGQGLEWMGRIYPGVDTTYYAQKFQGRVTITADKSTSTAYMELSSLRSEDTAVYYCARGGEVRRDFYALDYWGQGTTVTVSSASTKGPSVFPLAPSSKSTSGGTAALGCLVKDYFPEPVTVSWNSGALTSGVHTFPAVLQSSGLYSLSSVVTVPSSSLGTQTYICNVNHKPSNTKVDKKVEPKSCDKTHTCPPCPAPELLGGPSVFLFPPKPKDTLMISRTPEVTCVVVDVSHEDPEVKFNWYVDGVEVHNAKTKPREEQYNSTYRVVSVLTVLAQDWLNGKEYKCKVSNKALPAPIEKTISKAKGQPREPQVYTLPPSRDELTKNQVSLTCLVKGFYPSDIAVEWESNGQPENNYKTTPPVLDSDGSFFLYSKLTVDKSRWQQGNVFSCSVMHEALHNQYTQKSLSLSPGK
light: B1 light
notes: about 150 kDa; also called hul47mu
Consider B2, for which the EC50 in [2] was 0.0068 µg/mL and 0.05 nM.

B3: murine monoclonal antibody 147# (antibody, V domains shown)
VH: QVQLKQSGIELVRPGASVKLSCKTSGYIFTADWIYWVKQRSGQGLEWIGRIYPGVDSTYYNEKFKDKAILTADKSSSTAYMQLNSLKSEDSAVYFCARGGEVRRDFYALDYWGQGTSVTVSS
VL: NIVMTQSPESMSMSLGERVTLSCKASENVGTYVSWYQQKPEQSPKLLIYGASNRYTGVPARFTGSGSATDFTLTISSVQAEDLADYHCGQRYSYPFTFGSGTKLEIK
notes: Murine antibody purified from hybridoma supernatant by Protein G and detected with anti-mouse IgG
Turning to B3, the binding result with mouse CD276-ECD is “no binding”; in [3] it was “binds”; in test [4], “binds”; in test [5], “binds”; in test [6] it was “binds”; in test [7], “binds”. For the same molecule, the binding result in test [8], in test [9], in [10], in [11], in test [12] and in test [13] was “binds” each time. For the same molecule, the binding result (in test [14]; in test [15]; with C2-type 1-Fc) was “binds” throughout. The EC50 is 0.0384 µg/mL and 0.26 nM in test [2]; 0.0592 µg/mL and 0.39 nM in [16]; 0.0302 µg/mL and 0.2 nM in [17].
